{
  "source": "paper PMC5774828",
  "molecular_target": "DS protein (Dengue-HBsAg fusion: EDIII of DENV-1, -3, -4 and -2 joined in tandem to the HBV S antigen) (dengue virus 1 (West Pac-74) | dengue virus 3 (H87/56) | dengue virus 4 (H241-P) | dengue virus 2 (PR159-S1/69) | hepatitis B virus (adw serotype))",
  "test": "densitometry of a Western blot of the purified VLPs; Western blot of purified DSV4 developed with anti-S mAb 5S; ratio from the peak areas of DS, S and S dimer (ImageJ)",
  "data": [
    {"substance": "Hepatitis B virus surface (S) antigen, unfused (natural protein)", "values": [
      {"measurement": "stoichiometry N", "result": 4, "unit": "S per DS"}
    ]}
  ]
}
